pKd: −log10 of the molar value.
How the values were obtained:
Test in all cases: EMSA
[1] = target: T1, LigR1 (Pseudomonas putida KT2440) (UniProt Q88JP0)
T1 sequence: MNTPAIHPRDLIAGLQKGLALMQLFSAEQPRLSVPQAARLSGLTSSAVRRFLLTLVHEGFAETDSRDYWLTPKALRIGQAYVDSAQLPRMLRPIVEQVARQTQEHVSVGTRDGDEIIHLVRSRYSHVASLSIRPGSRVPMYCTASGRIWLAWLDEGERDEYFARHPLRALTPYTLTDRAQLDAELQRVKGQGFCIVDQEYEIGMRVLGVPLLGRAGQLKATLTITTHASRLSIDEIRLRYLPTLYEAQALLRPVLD

[2] = target: T2, LigR2 (Pseudomonas putida KT2440) (UniProt Q88JP8)
T2 sequence: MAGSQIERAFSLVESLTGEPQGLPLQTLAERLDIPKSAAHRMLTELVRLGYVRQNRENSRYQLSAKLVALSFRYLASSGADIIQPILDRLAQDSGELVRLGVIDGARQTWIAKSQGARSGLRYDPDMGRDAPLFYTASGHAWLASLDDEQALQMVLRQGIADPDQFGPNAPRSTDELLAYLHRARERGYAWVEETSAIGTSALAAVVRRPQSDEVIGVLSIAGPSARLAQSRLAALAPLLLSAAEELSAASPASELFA

[3] = system: LigR1 (Pseudomonas putida KT2440)
[4] = system: LigR2 (Pseudomonas putida KT2440)

Question: Which binding [1] does the source give for “GGTAATGCTGCCGGCCCATGATGCCGGCGCCAATCAAGGCAATACGAAGGGGTGCGTTCAACAGCCTGTCCTCTTGTCATTGTTGTTATGAAATTCTGAAACCGGGTTCCAAAATTCATACTCGACAATTTAGAACCAAGTTCAGCTTTTCAGAAGAACGGGCGCAACAGACTGTGCGGTAATCGACCGGAATATTCCCTCAGGCAAACAGCTCGCTGGCGGGACTGGCCGCCGACAGCTCTTCTGC (double strand) [lig2 intergenic region probe]” here?
Answer: Its binding is “no binding”.

Question: What about the pKd [2] of the same substance?
Answer: Its pKd is 6.82.

Question: With lig1 intergenic region probe as the substance, how does the pKd [3] read?
Answer: The pKd was 6.66.

Question: And the pKd [4]?
Answer: The pKd was 4.66.

Question: lig2 intergenic region probe was tested. Which pKd [4] did it give?
Answer: Its pKd is 6.82.

From article doi:10.1101/2025.08.13.670189
